According to the supplement of paper PMC10126150:
± gives the standard deviation of the averaged measurements.

Tested on: ATP
Experiment: switch fluorescence ratio, 500 uM ATP over buffer (Cy3 cluster intensity, sum of 5 cycles each) (fold (ratio)); higher = stronger signal-on switching upon ATP binding; sequences stand for … in TCGTCGGCAGCGTCAGATGTGTATAAGAGACAGTTTTTTTTTTTTTTTTTTTTTTTTT…TC
Conditions: aptamer strand: ATP DNA aptamer (quencher-CACCTGGGGGAGTATTGCGGAGGAAGG + anchor), 100 nM annealed; ATP concentration: 500 uM
In short: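 Cy3-labelled switching-strand clusters on a modified Illumina MiSeq flow-cell were annealed to 100 nM quencher-labelled ATP aptamer and imaged first in selection buffer, then after 15 min with 500 uM ATP at 22 °C. NaOH stripping and re-annealing separated each of five buffer/ATP cycles, and clusters outside 100-1000 RFU were excluded. The fluorescence ratio sums target-cycle Cy3 intensity over buffer-cycle Cy3 intensity per cluster and averages it per switch-domain sequence.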
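Note: ATP exposure 15 min at 22 °C before imaging.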

| Sequence | switch fluorescence ratio |
| --- | --- |
| ATGGTTCCTG | 1.03 ± 0.078 |
| ATGGTTTAA | 1 ± 0.044 |
| ATGGTTTACG | 1.05 ± 0.077 |
| ATGGTTTTGT | 0.959 ± 0.022 |
| ATGGTTTTTT | 1 ± 0.032 |
| ATGTAAAGAC | 1.05 ± 0.04 |
| ATGTAAAGCA | 1.02 ± 0.036 |
| ATGTAAAGGT | 1.04 ± 0.058 |
| ATGTAAATGC | 0.995 ± 0.02 |
| ATGTAACATG | 1 ± 0.027 |
| ATGTAAGTGC | 0.967 ± 0.064 |
| ATGTAATATA | 1.02 ± 0.06 |
| ATGTAATATT | 1.01 ± 0.033 |
| ATGTAATCAT | 1.01 ± 0.024 |
| ATGTAATTTA | 1 ± 0.017 |
| ATGTACGATA | 1.14 ± 0.043 |
| ATGTAGCATT | 1.21 ± 0.0026 |
| ATGTAGCTGG | 1.07 ± 0.033 |
| ATGTAGGGGA | 1.0051 ± 0.001 |
| ATGTAGGGGC | 1.03 ± 0.046 |
| ATGTAGGTGA | 1.03 ± 0.017 |
| ATGTAGTCGC | 1.004 ± 0.0012 |
| ATGTAGTTAT | 0.996 ± 0.048 |
| ATGTAGTTCG | 0.981 ± 0.03 |
| ATGTATACTT | 1.09 ± 0.14 |
| ATGTATAGCC | 0.995 ± 0.036 |

| Sequence | switch fluorescence ratio |
| --- | --- |
| ATGTATAGGA | 0.992 ± 0.029 |
| ATGTATATGC | 1.08 ± 0.069 |
| ATGTATCAGG | 1.03 ± 0.022 |
| ATGTATTTTG | 0.967 ± 0.049 |
| ATGTCAAGGC | 1.05 ± 0.052 |
| ATGTCACTGT | 1.01 ± 0.043 |
| ATGTCATAAA | 1.0269 ± 0.0006 |
| ATGTCATGGG | 0.998 ± 0.032 |
| ATGTCCAGGG | 1.21 ± 0.04 |
| ATGTCCGAAT | 1.02 ± 0.012 |
| ATGTCTTGAT | 0.963 ± 0.014 |
| ATGTGAGGGA | 0.991 ± 0.02 |
| ATGTGATGAA | 0.973 ± 0.019 |
| ATGTGATGGC | 0.981 ± 0.019 |
| ATGTGCCGTC | 1.04 ± 0.048 |
| ATGTGCTTGG | 1.02 ± 0.027 |
| ATGTGGAGTC | 1.05 ± 0.063 |
| ATGTGGATGC | 0.98 ± 0.045 |
| ATGTGGATGG | 0.976 ± 0.023 |
| ATGTGGCCGG | 0.997 ± 0.024 |
| ATGTGGCCTA | 0.986 ± 0.034 |
| ATGTGGCTTA | 0.989 ± 0.022 |
| ATGTGGGCTG | 0.979 ± 0.045 |
| ATGTGGGTAC | 1.02 ± 0.026 |
| ATGTGGGTAT | 1.028 ± 0.0068 |
| ATGTGGGTTT | 0.974 ± 0.021 |

| Sequence | switch fluorescence ratio |
| --- | --- |
| ATGTGGTCGC | 0.9972 ± 0.0016 |
| ATGTGTAAAC | 1.01 ± 0.038 |
| ATGTGTAACC | 1 ± 0.039 |
| ATGTGTAGGC | 1.02 ± 0.026 |
| ATGTGTAGGG | 0.9711 ± 0.0014 |
| ATGTGTATTG | 0.985 ± 0.025 |
| ATGTGTGGAG | 1.013 ± 0.0048 |
| ATGTGTGTGG | 1.03 ± 0.017 |
| ATGTGTTACC | 1.01 ± 0.021 |
| ATGTTAAATC | 0.96 ± 0.029 |
| ATGTTAACTA | 0.985 ± 0.065 |
| ATGTTAGTGG | 1.01 ± 0.066 |
| ATGTTATTGG | 0.967 ± 0.033 |
| ATGTTGATAT | 1.01 ± 0.045 |
| ATGTTGGGAA | 0.978 ± 0.029 |
| ATGTTGGGGG | 0.989 ± 0.018 |
| ATGTTGGGGT | 1 ± 0.029 |
| ATGTTGTGGT | 0.987 ± 0.031 |
| ATGTTTATCT | 0.979 ± 0.044 |
| ATGTTTGCTT | 0.974 ± 0.025 |
| ATGTTTGTTT | 0.993 ± 0.05 |
| ATGTTTTAGG | 1.01 ± 0.047 |
| ATGTTTTCCT | 1.0718 ± 0.00067 |
| ATGTTTTTAG | 0.991 ± 0.018 |
| ATTAAAAATC | 0.968 ± 0.036 |
